Here are results for four molecules from PMC3433420.

Experiment [1] deals with phosphopeptides corresponding to ErbB4 intracellular tyrosine sites (human). The experiment can be described thus: fluorescence polarisation; saturation binding in solution; rhodamine-labeled peptide fixed at 10 nM, protein titrated 0.002-10 µM (twelve two-fold dilutions); 20 minutes at room temperature in the dark; assay buffer 20 mM HEPES, 100 mM KCl, 0.1% Tween-20, 5 mM DTT, pH 7.8; apparent KD; assay detection threshold of 20 µM. A general note: Fluorescence polarisation rises when a labelled molecule tumbles more slowly, as on binding a larger partner.

Experiment [2] deals with phosphopeptides corresponding to ErbB2 intracellular tyrosine sites (human). The description is as above.
Experiment [3] has as its target phosphopeptides corresponding to ErbB1 intracellular tyrosine sites (human). Described as above.
In experiment [4] the target is MET pY1313 phosphopeptide, rhodamine-labelled. The experiment can be described thus: fluorescence polarisation; saturation binding in solution: rhodamine peptide fixed at 10 nM, protein titrated 0.002-10 uM, 20 min at room temperature; assay buffer 20 mM HEPES, 100 mM KCl, 0.1% Tween-20, 5 mM DTT, pH 7.8; apparent KD.
The target of experiment [5] is ErbB1 pY801 phosphopeptide, rhodamine-labelled (human). Described as above.
Experiment [6] has as its target ErbB4 pY906 phosphopeptide, rhodamine-labelled (human). Described as above.

B1: GRAP2 SH2 domain (domain or fragment)
chain: WFHEGLSRHQAENLLMGKEVGFFIIRASQSSPGDFSISVRHEDDVQHFKVMRDNKGNYFLWTEKFPSLNKLVDYYRTNSISRQKQIFLRDRT
As for B1, the Kd in experiment [1], in experiment [2] and in experiment [3] was 1000 nM each time.

B2: VAV2 SH2 domain (domain or fragment)
chain: WFAGNMERQQTDNLLKSHASGTYLIRERPAEAERFAISIKFNDEVKHIKVVEKDNWIHITEAKKFDSLLELVEYYQCHSLKESFKQLDTTLKYPY
As to B2, the Kd in experiment [4] was determined as 17 µM.

B3: TNS3 SH2 domain (domain or fragment)
chain: WYKADISREQAIAMLKDKEPGSFIVRDSHSFRGAYGLAMKVATPPPSVLQLNKKAGDLANELVRHFLIECTPKGVRLKGCSNEPYFGSLTALVCQHSITPLALPCKLLIPE
Consider B3, for which the Kd in experiment [4] turned out to be 5.89 µM; in experiment [5] it was 5.35 µM.

B4: SHC3 SH2 domain (domain or fragment)
chain: WYQGEMSRKEAEGLLEKDGDFLVRKSTTNPGSFVLTGMHNGQAKHLLLVDPEGTIRTKDRVFDSISHLINHHLESSLPIVSAGSELCLQQPV
Regarding B4, the Kd in experiment [6] came to 540 nM.
